According to US20200247855A1, “THERAPY AND DIAGNOSTICS” (OXFORD UNIVERSITY INNOVATION LIMITED, priority 2017, published 2020):
Numbering of substitutions follows the chain as printed. Read-outs that look alike come from different tables or passages of the source.

B1: P1243_AMBAM: tick CKBP, Amblyomma americanum; AAM-02 stated identical (protein, listed as Amblyomma americanum)
chain: RNHTEDNSTEYYDYEEARCACPARHLNNTNGTVLKLLGCHYFCNGTLCTAPDGYPCYNLTAQQVRTLTTYPNTSCAVGVCMKGTCVKNGTMEQCFKTP
B2: P672_RHIPU: tick CKBP, Rhipicephalus pulchellus (protein, listed as Rhipicephalus pulchellus)
chain: VCEVSEQEGVGEDNATEDEDYEDFFKPVTCYFANSTVGPLRPPNCTVVCTNNTAWWNDTKSDGGHCYSEYRPEKRTHSREIYNCTIGVCGNGTCIANHTYADCW
B3: EVASIN4: previously described tick CKBP evasin 4, from Rhipicephalus sanguineus (protein, listed as Rhipicephalus sanguineus)
chain: EVPQMTSSSAPDLEEEDDYTAYAPLTCYFTNSTLGLLAPPNCSVLCNSTTTWFNETSPNNASCLLTVDFLTQDAILQENQPYNCSVGHCDNGTCAGPPRHAQCW

Assays:
CCL14_HUMAN = target: T1, CCL14_HUMAN (Homo sapiens, UniProt Q16627); test: Biolayer interferometry (BLI) binding
T1 sequence (Q16627 20-93): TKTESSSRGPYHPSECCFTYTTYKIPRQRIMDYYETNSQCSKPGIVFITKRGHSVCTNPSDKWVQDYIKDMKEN
Outline: (§1)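 Binding was measured by biolayer interferometry with the His-tagged tick protein bound to Ni-NTA sensors. A single-concentration screen used chemokine at 300 nM. Chemokines that bound were retested over multiple doses, and Kd was calculated from fitted curves.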

CCL3_HUMAN = target: T2, CCL3_HUMAN (Homo sapiens, UniProt P10147); test: Biolayer interferometry (BLI) binding
T2 sequence (P10147 24-92): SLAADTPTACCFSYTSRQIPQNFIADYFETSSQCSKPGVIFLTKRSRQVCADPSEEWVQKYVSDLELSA
Outline: as §1

CCL7_HUMAN [1] = target: T3, CCL7_HUMAN (Homo sapiens, UniProt P80098); test: Biolayer interferometry (BLI) binding
T3 sequence (P80098 24-99): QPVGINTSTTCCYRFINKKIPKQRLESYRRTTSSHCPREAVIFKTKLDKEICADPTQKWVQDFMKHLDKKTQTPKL
Outline: as §1

CCL15_HUMAN = target: T4, CCL15_HUMAN (Homo sapiens, UniProt Q16663); test: Biolayer interferometry (BLI) binding
T4 sequence (Q16663 22-113): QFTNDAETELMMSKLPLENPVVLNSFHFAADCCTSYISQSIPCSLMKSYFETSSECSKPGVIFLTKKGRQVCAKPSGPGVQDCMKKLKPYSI
Outline: as §1

CCL3L1_HUMAN = CCL3L1_HUMAN (Homo sapiens, UniProt P16619); test: Biolayer interferometry (BLI) binding
Sequence of CCL3L1_HUMAN (P16619 24-93): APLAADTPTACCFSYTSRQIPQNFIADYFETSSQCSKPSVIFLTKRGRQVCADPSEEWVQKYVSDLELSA
Outline: as §1

CCL16_HUMAN = target: T5, CCL16_HUMAN (Homo sapiens, UniProt O15467); test: Biolayer interferometry (BLI) binding
T5 sequence (O15467 24-120): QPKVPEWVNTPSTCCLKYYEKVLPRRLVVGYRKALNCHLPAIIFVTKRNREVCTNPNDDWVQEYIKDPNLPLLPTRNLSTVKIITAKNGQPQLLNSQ
Outline: as §1

CCL4L1_HUMAN = target: T6, CCL4L1_HUMAN (Homo sapiens, UniProt Q8NHW4); test: Biolayer interferometry (BLI) binding
T6 sequence (Q8NHW4 24-92): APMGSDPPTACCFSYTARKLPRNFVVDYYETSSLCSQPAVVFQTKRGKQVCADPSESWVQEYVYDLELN
Outline: as §1

CCL8_HUMAN = target: T7, CCL8_HUMAN (Homo sapiens, UniProt P80075); test: Biolayer interferometry (BLI) binding
T7 sequence (P80075 24-99): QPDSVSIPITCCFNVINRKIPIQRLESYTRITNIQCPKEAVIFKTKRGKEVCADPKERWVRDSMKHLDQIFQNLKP
Outline: as §1

CCL7_HUMAN [2] = target: T3, CCL7_HUMAN; settings: read-out: Kd, CCL7_HUMAN, previously described evasins; data obtained from publications [20-22,32]; cited from earlier work
CCL4_HUMAN = target: T8, CCL4_HUMAN (Homo sapiens, UniProt P13236); settings: data obtained from publications [20-22,32]; cited from earlier work
T8 sequence (P13236 24-92): T6 sequence (Q8NHW4 24-92) with G47S

CCL24_HUMAN = target: T9, CCL24_HUMAN (Homo sapiens, UniProt O00175); settings: read-out: Kd, CCL24_HUMAN, previously described evasins; data obtained from publications [20-22,32]; cited from earlier work
T9 sequence (O00175 27-119): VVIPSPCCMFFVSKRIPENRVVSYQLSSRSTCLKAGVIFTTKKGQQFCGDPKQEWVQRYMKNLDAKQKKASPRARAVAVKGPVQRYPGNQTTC

| Molecule | Kd (CCL14_HUMAN) [nM] | Kd (CCL3_HUMAN) [nM] | Kd (CCL7_HUMAN [1]) [nM] | Kd (CCL15_HUMAN) [nM] | Kd (CCL3L1_HUMAN) [nM] | Kd (CCL16_HUMAN) [nM] | Kd (CCL4L1_HUMAN) [nM] | Kd (CCL8_HUMAN; read-out: Kd, CCL8_HUMAN) [nM] | Kd (CCL8_HUMAN; read-out: Kd for CCL8) [nM] | Kd (CCL7_HUMAN [2]) [nM] | Kd, CCL4_HUMAN, previously described evasins (CCL4_HUMAN) | Kd (CCL24_HUMAN) [nM] |
| --- | --- | --- | --- | --- | --- | --- | --- | --- | --- | --- | --- | --- |
| B1 | 0.816 | 5.3 | 8.66 | 9.61 | 5.05 | 0.926 | 35.4 | 21.9 |  |  |  |  |
| B2 | 5.5 | 2.6 | 16 | 32 | 2.7 | 3.3 |  |  | 3.7 |  |  |  |
| B3 |  |  |  |  |  |  |  |  |  | 0.7 | No Binding | 0.41 |
